The target of the assay is T1, human Gαi1 (human, UniProt P63096).
T1 construct: also called Gαi subunit; source: prepared as described (11)
As to the kind of experiment: cryo-EM structure; Rho-Gαiβγ-scFv16-Fab79, mixed 1:1.4:1.4 in 0.02% LMNG, purified by SEC; two conformations at 5.2 and 5.9 Å. Conditions: both partners purified.

T1 sequence (P63096 whole entry): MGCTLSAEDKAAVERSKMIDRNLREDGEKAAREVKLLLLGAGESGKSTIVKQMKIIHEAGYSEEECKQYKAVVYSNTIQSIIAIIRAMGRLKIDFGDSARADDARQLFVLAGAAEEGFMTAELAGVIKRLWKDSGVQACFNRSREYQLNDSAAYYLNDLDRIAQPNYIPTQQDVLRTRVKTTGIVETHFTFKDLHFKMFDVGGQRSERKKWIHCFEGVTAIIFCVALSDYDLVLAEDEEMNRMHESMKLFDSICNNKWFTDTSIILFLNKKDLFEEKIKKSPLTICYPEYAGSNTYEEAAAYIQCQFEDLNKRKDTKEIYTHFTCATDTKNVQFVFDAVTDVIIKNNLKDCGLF

B1: Fab79 (Fab, V domains shown)
VH: EVQLVESGGGLVKPGGSLKLSCAASGFTFSSYAMSWVRQTPEKRLEWVATISSRGLYTYFPDSMKGRFTISRDNAKNTLSLQMSSLRSEDTAMYYCLRGGGYDADYWGQGTTLTVSS
VL: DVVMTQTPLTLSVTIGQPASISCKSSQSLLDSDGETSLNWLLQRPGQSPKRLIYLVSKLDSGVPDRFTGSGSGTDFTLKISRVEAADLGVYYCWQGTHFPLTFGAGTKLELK
notes: Fab79 heavy chain; also in the deposited models PDB 8P13 and 8P15; Fab79 light chain; source: prepared as described (11); from mice immunized with the purified Rho-Gαiβγ complex
In the case of B1, the binding result is reported as “binds”.
